# Measured values published in article PMC4701713, “DNA Entry into and Exit out of the Cohesin Ring by an Interlocking Gate Mechanism” (Cell, 2015).
# B1: Fission-yeast Wapl (natural protein, fission yeast, UniProt O94364 1-602, looked up)
# chain: MKRGKCKEKDNGLKRISSESEVWNFLDVTVSELNKQKRSPGQTVSKRLHKKQRVVSNPDLSLPSSPVKQILRNGLQNSKYGSHKTGLERSASCSSIDASANHSSTTYREQRSYLMEEGLDTQPIVPREVSSGRELDSTNHTIGTERAFLIEEDVSEDDEIQMKSIHELRFAGEQQRIVDEIEYLVDGVTFSGNSSASRYLSLIGIAEKMFDNSFRLCLKSIRDVFLRIFEEIDPKDTLHTFLQIYIFATMANEMDCMSSLLDAYSNNVKLLLQTAITLEPQVPVSILAKSLPKSVKGAVQEFVIKAELTFSFSNESLASSDSISLAAIALMKTSSGVFAESELFTELINLLIEKSYPILKENDGSNNFLLHALCSSLEKFTDFQGSEKIQKVSQILSSKLQILIDEHNETNSPKIDDTVVHACSEKLLRTLIQTVNSNSDHALAVSKSEVPLFAYKILQKFSNFSSDDETTRELIILILGLLLGLVEESHEFIQTITHVEVSFGASALDVLISFYQKNESIVEISGYVVMILSHCFLNDPKAFAQLKPLISQFYESLHKFKNFHLKLKEELMMMGSNGLAIVSIIDELHKSLQDYLRSDLVK
# notes: Wapl, cohesin subunit of fission yeast; GST was removed by protease; source: E. coli, purified (glutathione sepharose, heparin chromatography)
# B2: Fission-yeast Psc3 (natural protein, fission yeast, UniProt O13816 1-962, looked up)
# chain: MSESVTTGSDDDGGDRESSPVMLSQSFDPMSSSSNSSSEENSDDDYEKTISSKKRHPRPNSKGVNVKRSRRNAIVEEDPQEEIFNNLFAFLLDQKVDTMDIAVSWFADYAKDNQSALANLINFILKCCGCNRAINVFDVQDQDSASATLSQIQLSVERTSTRDYPLNSKNLKFRNFRKRLTGLLSNFVSQLSIRNYLYNSTVFEDIMSWVVAMSSSTMRPIRHTATVFCLNIMTFLCEKSKELLNEHAIATKQLEKEEKRSRVNRNRINELNNSLGEIVKQQDTLTTYLNDYFDSVFVHRYRDVEPKIRVDCLQELGVWINTVPSIFFSGSYLRYLGWMLSDINTTVRLTVVKVLRKFFETDSFIGGLRHFSSRFKERILEMSCVDADIGVRVASIRLCNAMRTCGFLENSEILKVLKLILDINPRVQREAVLFLCKVVDESVNEKIDLWGEEDYILKAFSQTSLTTFSVHWIKFSQMCKLLEEVRLSYQSSFDYDTLLRIFQKNGNFITPITQALLNACEIDSIYQSWEDISNFVLFDNYTSTLKDPIDSILSFCKLNDFQESILLQLLSASIQTVCNNNFITPKTVHNKQAAETTNDQNKDKDLLYLNLLPYINSITERNSASPTLLHDSLRLLFSMDLTEMTDPQLSRHFELLINNLKKFFLTNNDLQIIQGCTILFLRLDSIPALKEDLKLLVTDICDQTVTEFLKNFGSFNIQDAVITKDEFVIFEACLTRIEGCTSLKDFSDYPEFDIIYERLVSLLSRVPNSYEDTLKFSAINTLQSLLFWFFLRKDNPADEEKKKDDETKVFNCLINIMNNDSSKILQLQAARTFLETVIMKEGVKASHYNDDNRVSEEHNFLKPQFLDALLKILEGWLYTYAKVGQFPFKRLTQASSPHTQISLDKNPLNRRLLEHVCCDLTSKLLIVVSLSNTITPEFSQQFCELRGHYGPKLSAIVDEFLN
# notes: Psc3 (Scc3), subunit of fission-yeast cohesin, as a separate protein; source: prepared and purified as described (Murayama and Uhlmann, 2014)
# B3: Fission-yeast Pds5 (natural protein, fission yeast, UniProt Q9HFF5 1-1205, looked up)
# chain: MIKLQFQRNIVPTHDNPLTTSEILKRLRDLLGELTSLSQDTIDRDSVLPVARSLVNNNLLHHKDKGIRSYTLCCIVELLRLCAPDAPFTLSQLEDIFQVILKILSGLMNQESTYYPQIYEILESLSNVKSAVLIVDLPNAEEFLVNIFRLFFDLARKGTTKNVEFYMLDIINQLINEINTIPAAALNILFAQLISGKGVRQTIGSSDSTNHGPAFQLARNIFHDSADRLQRYVCQYFSDIIFDSRDSLSDSMTTPEFIFSHNLVLQLWKYAPTTLLNIIPQFENELQAEQTSVRLVAIETVGLMLQDNAIWSDYPRVWSAFCGRLNDKSVACRIKCIEVASNALQNSLATSEIIENVVQMLQSKLADTDEKVRVATLKTIEQLTFETFKMQFSVQALKLMGDRLRDRKLNVRLQAIRTLSQIYNRAYQDLIDGVEYSIQMFSWIPSSLLEVFYVNDETTNAAVEICMAELVLQYLSSDTQTRLNRLFLSIKYFSEKAMRVFILLLQRQVKYSELLNYYIECCKNYNGGVMDNDEESITNKLKKVIDIISSKSSNPTLTEATFRKFAELNDRQSYKMLLQTFSIKSEYQVVLKSIKYLFKRVSETLSTASLECFRIFVYRSALFAFNKSNVHEIIQLLNEPVKYHNFLKPSEALLQHLPLIHPNIYGEVVIEVENIIVSSGIESDPKVIKALSQFSKRKKNFSIQTTTAEILRKLCLHGTQEQAKQAATIIAITETKEFKLDMITNIVENLEYNGGLPVRLMTLGQLFLYTLEEVEKVADQVTEFLVKKVIQRFPEKYDDTHNDEEWCTYEKLDNLTMCKVLAIRVLVNRLRAAAGGTEALNIGAPIIKLLKVLLMADGELSPFKNTPKISRAYLRLTASKYFLKLCSIPFYAEHIDFSSYVQISLLCQDENFDVRNLFLTKLQKQLQLKKLPISYYPLLFLTAVDPEEEIKTKASIWIRSQVAFFQKTHDFTMEYVATYLIHLLSHHPDISSIESENSLDFIAYIRFYVDTVVNSENVPIVFHLMQRIKQSYDVIEDGNNYIYVLSDMAQKILQVKSQNFGWSLTTYPKQIKLPYEILRPIPSIDEKKRIFNKIFITPKMESQIEHAIRTPVSSFAKQTTNKHANLKQKKTHSSKSDKKSSRRRKNEKRRKLNEQNPNIRNVPERSSSRFQGIRINYSEAPSSSEEISEEEEEISEEDFDEIEDL
# notes: Pds5, cohesin subunit of fission yeast; Protein A was removed by protease; source: overexpressed in budding yeast, purified (IgG-agarose, Capto Q, gel filtration)
# Experiments:
# Conditions in all cases: both partners purified
# [1] = biological target: T1, Fission-yeast cohesin tetramer (Psm1, Psm3, Rad21 and Psc3) (fission yeast, UniProt O94383 1-1228; O42649 1-1194; P30776 1-628; O13816 1-962); assay: co-IP; recombinant cohesin tetramer or trimer immunoprecipitated via Rad21-HA with Pds5 and Wapl both added; bound proteins by western blotting
# T1 construct: Psm1 (Smc1), SMC subunit of fission-yeast cohesin; Psm3 (Smc3), SMC subunit of fission-yeast cohesin; Rad21, kleisin subunit of fission-yeast cohesin; Psc3 (Scc3), subunit of fission-yeast cohesin; also called "4"; source: recombinant, purified as described (Murayama and Uhlmann, 2014); not shown: Pk, C-terminal, kept; copies: + + +
# [2] = biological target: T2, Fission-yeast cohesin trimer (Psm1, Psm3 and Rad21) (fission yeast, UniProt O94383 1-1228; O42649 1-1194; P30776 1-628); assay: as above
# T2 construct: Psm1 (Smc1), SMC subunit of fission-yeast cohesin; Psm3 (Smc3), SMC subunit of fission-yeast cohesin; Rad21, kleisin subunit of fission-yeast cohesin; Lacks Psc3; source: recombinant, purified (Murayama and Uhlmann, 2014); copies: + +
# [3] = biological target: B3; assay: SEC; purified Pds5 and Wapl mixed in equimolar amounts and analysed by gel filtration; fractions by SDS-PAGE and silver staining
# [4] = biological target: T3, Mis4-Ssl3 cohesin loader (fission yeast, UniProt Q09725 1-1587; O94459 1-559); assay: co-IP; Psc3 immunoprecipitated; co-precipitation of the Psm1-Psm3 hinge and of the cohesin loader analysed
# T3 construct: Mis4, subunit of the fission-yeast cohesin loader; Ssl3, subunit of the fission-yeast cohesin loader; also called MS; source: prepared and purified as described (Murayama and Uhlmann, 2014)
# T1 sequence (O94383 whole entry, chain 1 of 3): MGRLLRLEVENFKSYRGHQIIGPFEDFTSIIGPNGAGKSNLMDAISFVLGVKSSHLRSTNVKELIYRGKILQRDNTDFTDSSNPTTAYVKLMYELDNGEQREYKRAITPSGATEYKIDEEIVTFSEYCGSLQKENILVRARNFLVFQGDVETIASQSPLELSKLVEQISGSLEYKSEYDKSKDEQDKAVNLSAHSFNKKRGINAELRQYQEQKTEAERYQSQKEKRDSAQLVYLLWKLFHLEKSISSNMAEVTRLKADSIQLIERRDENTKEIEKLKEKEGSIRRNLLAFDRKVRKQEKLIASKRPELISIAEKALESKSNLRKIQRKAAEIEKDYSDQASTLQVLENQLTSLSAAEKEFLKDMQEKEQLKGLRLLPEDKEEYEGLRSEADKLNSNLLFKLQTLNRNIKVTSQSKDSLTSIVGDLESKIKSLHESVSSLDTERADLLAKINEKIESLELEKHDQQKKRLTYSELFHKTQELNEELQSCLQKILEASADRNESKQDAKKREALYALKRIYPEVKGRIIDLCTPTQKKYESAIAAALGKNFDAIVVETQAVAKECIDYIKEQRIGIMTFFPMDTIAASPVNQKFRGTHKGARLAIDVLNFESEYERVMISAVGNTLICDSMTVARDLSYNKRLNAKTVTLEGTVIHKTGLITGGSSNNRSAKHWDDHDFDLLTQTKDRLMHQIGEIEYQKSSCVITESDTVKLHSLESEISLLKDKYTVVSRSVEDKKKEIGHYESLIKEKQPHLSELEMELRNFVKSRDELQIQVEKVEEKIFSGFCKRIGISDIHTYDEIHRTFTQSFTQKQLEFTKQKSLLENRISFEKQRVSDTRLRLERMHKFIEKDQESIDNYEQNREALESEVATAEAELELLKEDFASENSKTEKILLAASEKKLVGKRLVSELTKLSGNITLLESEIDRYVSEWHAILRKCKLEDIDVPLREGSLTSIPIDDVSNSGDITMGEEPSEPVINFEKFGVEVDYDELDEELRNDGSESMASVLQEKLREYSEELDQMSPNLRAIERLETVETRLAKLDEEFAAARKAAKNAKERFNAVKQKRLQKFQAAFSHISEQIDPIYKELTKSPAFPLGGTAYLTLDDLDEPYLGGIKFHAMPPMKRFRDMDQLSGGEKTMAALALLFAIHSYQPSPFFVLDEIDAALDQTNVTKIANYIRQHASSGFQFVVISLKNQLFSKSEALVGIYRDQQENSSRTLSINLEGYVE
# T1 sequence (O42649 whole entry, chain 2 of 3): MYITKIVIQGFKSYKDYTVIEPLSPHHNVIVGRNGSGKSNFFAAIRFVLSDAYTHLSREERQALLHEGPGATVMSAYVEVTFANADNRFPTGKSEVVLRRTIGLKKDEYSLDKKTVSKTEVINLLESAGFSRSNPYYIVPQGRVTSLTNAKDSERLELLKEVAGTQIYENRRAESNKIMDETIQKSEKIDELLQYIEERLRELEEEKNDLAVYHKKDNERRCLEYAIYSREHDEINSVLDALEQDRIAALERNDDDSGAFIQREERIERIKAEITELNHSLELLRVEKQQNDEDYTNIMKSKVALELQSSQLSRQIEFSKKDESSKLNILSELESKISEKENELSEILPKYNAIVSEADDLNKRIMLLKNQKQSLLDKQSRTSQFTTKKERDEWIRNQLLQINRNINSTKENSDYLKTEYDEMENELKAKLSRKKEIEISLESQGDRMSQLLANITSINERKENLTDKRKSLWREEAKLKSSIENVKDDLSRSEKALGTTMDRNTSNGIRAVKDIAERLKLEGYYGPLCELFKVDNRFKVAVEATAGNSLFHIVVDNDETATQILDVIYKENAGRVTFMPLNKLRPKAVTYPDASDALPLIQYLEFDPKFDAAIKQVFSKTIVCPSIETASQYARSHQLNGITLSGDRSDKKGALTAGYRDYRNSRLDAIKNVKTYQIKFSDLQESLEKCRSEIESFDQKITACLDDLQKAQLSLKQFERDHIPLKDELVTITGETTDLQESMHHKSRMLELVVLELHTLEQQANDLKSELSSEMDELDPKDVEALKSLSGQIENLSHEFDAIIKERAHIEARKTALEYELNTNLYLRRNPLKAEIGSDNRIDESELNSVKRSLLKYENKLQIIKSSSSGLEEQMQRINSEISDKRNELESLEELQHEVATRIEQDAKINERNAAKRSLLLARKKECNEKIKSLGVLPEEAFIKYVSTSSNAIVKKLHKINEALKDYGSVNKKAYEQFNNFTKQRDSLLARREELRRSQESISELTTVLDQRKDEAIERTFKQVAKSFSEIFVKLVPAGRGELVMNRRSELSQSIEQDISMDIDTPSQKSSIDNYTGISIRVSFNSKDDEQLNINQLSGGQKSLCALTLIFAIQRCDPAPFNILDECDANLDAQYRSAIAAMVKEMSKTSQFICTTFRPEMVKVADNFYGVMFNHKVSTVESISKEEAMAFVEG
# T1 sequence (P30776 whole entry, chain 3 of 3): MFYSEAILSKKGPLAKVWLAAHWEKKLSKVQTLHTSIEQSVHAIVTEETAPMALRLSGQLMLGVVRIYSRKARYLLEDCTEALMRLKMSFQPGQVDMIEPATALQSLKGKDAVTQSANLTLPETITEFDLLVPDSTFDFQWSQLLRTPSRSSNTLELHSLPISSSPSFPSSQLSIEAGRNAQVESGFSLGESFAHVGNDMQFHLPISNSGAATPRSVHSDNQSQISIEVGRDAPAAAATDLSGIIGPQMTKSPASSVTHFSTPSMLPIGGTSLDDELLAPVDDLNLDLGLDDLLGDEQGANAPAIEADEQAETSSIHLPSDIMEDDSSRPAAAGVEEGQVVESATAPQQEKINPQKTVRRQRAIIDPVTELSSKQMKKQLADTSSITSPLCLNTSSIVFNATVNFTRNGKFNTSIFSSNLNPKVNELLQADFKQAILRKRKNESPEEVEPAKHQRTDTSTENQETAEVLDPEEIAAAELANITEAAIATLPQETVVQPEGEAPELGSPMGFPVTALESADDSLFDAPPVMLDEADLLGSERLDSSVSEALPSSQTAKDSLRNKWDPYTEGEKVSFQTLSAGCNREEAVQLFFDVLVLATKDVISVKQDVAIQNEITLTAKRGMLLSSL
# T2 sequence (O94383 whole entry, chain 1 of 3): as the sequence (O94383 whole entry, chain 1 of 3) above
# T2 sequence (O42649 whole entry, chain 2 of 3): as the sequence (O42649 whole entry, chain 2 of 3) above
# T2 sequence (P30776 whole entry, chain 3 of 3): as the sequence (P30776 whole entry, chain 3 of 3) above
Binder,binding result [1],binding result [2],binding result [3],binding result [4]
B1,binds,binds,binds,–
B2,–,–,–,binds
B3,binds,binds,–,–
